Key:
[1] = tested on: Saccharomyces cerevisiae; test: protein stability index of tFT-peptide fusion in wild type (PSI (0-1 scale)); higher = more stable (slower turnover); details: genetic background: wild type
Experimental: (§1)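 MPS profiling in S. cerevisiae of two library types built from selected 12-aa C-degron peptides (IN1, IN2, LN1, LN3, VN2, R1-R5, W1-W3, Atg1 and Rpa12 C-termini): saturation mutagenesis libraries and C-terminal +1 capping libraries (13 aa). Each peptide is fused to the C-terminus of a sfGFP-mCherry timer, after a GGGS linker. Cells are FACS-sorted into 8 mCherry/sfGFP bins and sequenced. PSI runs from 0 (unstable) to 1 (stable), measured once in wild type and in the das1Δ or doa10Δ background.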

[2] = tested on: Saccharomyces cerevisiae; test: protein stability index of tFT-peptide fusion in deletion strain of DAS1 (PSI (0-1 scale)); higher = more stable (slower turnover)
Experimental: as §1
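For protein stability index of tFT-peptide fusion in deletion strain of DAS1 in this document: PSI is a weighted mean of each variant's read distribution over the sorted stability bins, computed only for variants having over 10 reads in total.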
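For protein stability index of tFT-peptide fusion in wild type in this document: PSI derived as read-weighted mean over the 8 sorting bins, only variants exceeding 10 total reads kept, mCherry placed adjacent to the peptide and sfGFP distal.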

Row | Sequence | protein stability index [1] | protein stability index [2]
1 | ARWRVGPWRGAS | 0.577 | 0.68
2 | ARWRVGRWRGAS | 0.533 | 0.688
3 | ARWRVTLWRGAS | 0.382 | 0.692
4 | ARWSVGLWRGAS | 0.448 | 0.692
5 | ATWRVGLWRGAS | 0.487 | 0.685
6 | CGSCGYKFRTNN | 0.265 | 0.687
7 | CISCGYKFRTNN | 0.211 | 0.725
8 | CTSCGFKFRTNN | 0.486 | 0.697
9 | CTSCGMKFRTNN | 0.304 | 0.715
10 | CTSCGYKFCTNN | 0.377 | 0.698
11 | CTSCGYKFPTNN | 0.71 | 0.728
12 | CTSCGYKFRCNN | 0.487 | 0.695
13 | CTSCGYKFRINN | 0.233 | 0.721
14 | CTSCGYKFRLNN | 0.35 | 0.701
15 | CTSCGYKFRTDN | 0.65 | 0.653
16 | CTSCGYKFRTNE | 0.726 | 0.685
17 | CTSCGYKFRTNM | 0.156 | 0.731
18 | CTSCGYKFRTNNA | 0.698 | 0.697
19 | CTSCGYKFRTNNE | 0.709 | 0.711
20 | CTSCGYKFRTNNV | 0.684 | 0.69
21 | CTSCGYKYRTNN | 0.295 | 0.674
22 | CTSCGYMFRTNN | 0.357 | 0.682
23 | CTSCHYKFRTNN | 0.26 | 0.64

Row | Sequence | protein stability index [1] | protein stability index [2]
24 | CVVYLSCVACIN | 0.0137 | 0.0323
25 | DRWRVGLWRGAS | 0.413 | 0.657
26 | DTSCGYKFRTNN | 0.241 | 0.68
27 | FAMRWTFRYWVN | 0.0656 | 0.476
28 | FKILRQKMNHQN | 0.168 | 0.672
29 | FSDRWTFRYWVN | 0.095 | 0.605
30 | FSMGWTFRYWVN | 0.0807 | 0.575
31 | FSMLWTFRYWVN | 0.0376 | 0.346
32 | FSMRLTFRYWVN | 0.0555 | 0.401
33 | FSMRWQFRYWVN | 0.0795 | 0.53
34 | FSMRWTCRYWVN | 0.0505 | 0.515
35 | FSMRWTFEYWVN | 0.0782 | 0.448
36 | FSMRWTFRGWVN | 0.313 | 0.605
37 | FSMRWTFRYIVN | 0.202 | 0.475
38 | FSMRWTFRYWHN | 0.149 | 0.686
39 | FSMRWTFRYWVNF | 0.076 | 0.523
40 | FSMRWTFRYWVNH | 0.106 | 0.559
41 | FSMRWTFRYWVNK | 0.522 | 0.532
42 | FSMRWTFRYWVNR | 0.559 | 0.562
43 | FSMRWTFRYWVNS | 0.194 | 0.542
44 | FSMRWTFRYWVNT | 0.318 | 0.539
45 | FSMRWTPRYWVN | 0.0631 | 0.59
46 | FSMRWTVRYWVN | 0.0513 | 0.454

Row | Sequence | protein stability index [1] | protein stability index [2]
47 | FSMYWTFRYWVN | 0.0583 | 0.399
48 | FSVRWTFRYWVN | 0.0298 | 0.419
49 | GRGAVGGWRLVG | 0.19 | 0.671
50 | IKHKKGQKQKIN | 0.109 | 0.608
51 | ITSCGYKFRTNN | 0.208 | 0.674
52 | KDHKKGQKQKIN | 0.0956 | 0.604
53 | KKCKKGQKQKIN | 0.102 | 0.593
54 | KKHKKEQKQKIN | 0.0895 | 0.678
55 | KKHKKGQKFKIN | 0.158 | 0.572
56 | KKHKKGQKNKIN | 0.096 | 0.596
57 | KKHKKGQKQAIN | 0.57 | 0.6
58 | KKHKKGQKQKEN | 0.57 | 0.82
59 | KKHKKGQKQKING | 0.293 | 0.653
60 | KKHKKGQKQKIT | 0.263 | 0.598
61 | KKHKKGQKQKIY | 0.255 | 0.594
62 | KKHKKGQKQKRN | 0.5 | 0.575
63 | KKHKKGQKQPIN | 0.637 | 0.587
64 | KKHKKGQKSKIN | 0.548 | 0.562
65 | KKHKKGQMQKIN | 0.209 | 0.626
66 | KKHKKGQRQKIN | 0.0819 | 0.599
67 | KKHKKGQWQKIN | 0.106 | 0.556
68 | KKHKKYQKQKIN | 0.0518 | 0.587
69 | KKHKPGQKQKIN | 0.143 | 0.607

Row | Sequence | protein stability index [1] | protein stability index [2]
70 | KKHKWGQKQKIN | 0.05 | 0.589
71 | KKHKYGQKQKIN | 0.067 | 0.613
72 | KKHLKGQKQKIN | 0.0828 | 0.608
73 | KKHQKGQKQKIN | 0.0868 | 0.597
74 | KNHKKGQKQKIN | 0.121 | 0.61
75 | KSMRWTFRYWVN | 0.0597 | 0.578
76 | LAVYLSCVACIN | 0.0214 | 0.0886
77 | LCVYLSCVACIN | 0.0138 | 0.0253
78 | LFILRQKMNHQN | 0.126 | 0.692
79 | LKHLRQKMNHQN | 0.175 | 0.712
80 | LKILAQKMNHQN | 0.229 | 0.667
81 | LKILCQKMNHQN | 0.246 | 0.71
82 | LKILRCKMNHQN | 0.17 | 0.625
83 | LKILRQKMNHQK | 0.666 | 0.682
84 | LKILRQKMNHQNA | 0.658 | 0.681
85 | LKILRQKMNHQND | 0.675 | 0.724
86 | LKILRQKMNHQNP | 0.678 | 0.688
87 | LKILRQKMNHQNT | 0.671 | 0.692
88 | LKILRQKMNHQR | 0.67 | 0.669
89 | LKILRQKMNMQN | 0.281 | 0.641

From the supplement of paper PMC10724198
